Target: HMGA1a-FLAG (UniProt P17096 1-107)
Test: EMSA

HMGA1a-FLAG, sequence (P17096 whole entry): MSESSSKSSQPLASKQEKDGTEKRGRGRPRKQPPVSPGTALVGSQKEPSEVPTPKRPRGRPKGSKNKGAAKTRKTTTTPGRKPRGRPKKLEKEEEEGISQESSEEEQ

B1: IL2-Rα promoter fragment (-136 to -76) (dsDNA)
DNA 1: ACCGCAAACTATATTGTCATCAAAAAAAAAAAAAAAAAAACACTTCCTATATTTGAGATG
DNA 2: CATCTCAAATATAGGAAGTGTTTTTTTTTTTTTTTTTTTGATGACAATATAGTTTGCGGT
Q: Does B1 bind?
A: Result: binds

— publication PMC3064786
